From paper PMC8241838, “Structural mechanism of laminin recognition by integrin” (Nature Communications, 2021)

Columns and labels:
[1] = target: α6β1 integrin on Expi293F cells, α6 D153A (human, UniProt P05556 21-798, Mn2+; A cytoplasmic form assumed); experiment: flow cytometry on cells; Expi293F cells transiently expressing α6 (wild type or mutant) with β1, in HBS-BSA with 0.5 mM MnCl2, varying concentrations of sfGFP-tLM511, room temperature 2 h, no washing; non-transfected cells as baseline; details: one partner purified
[2] = target: α6β1 integrin on Expi293F cells, α6 R157A (human, UniProt P05556 21-798, Mn2+; A cytoplasmic form assumed); experiment: as above; details: one partner purified
Chain of α6β1 integrin on Expi293F cells, α6 R157A (chain, as listed by the source R157A, chain 1 of 2): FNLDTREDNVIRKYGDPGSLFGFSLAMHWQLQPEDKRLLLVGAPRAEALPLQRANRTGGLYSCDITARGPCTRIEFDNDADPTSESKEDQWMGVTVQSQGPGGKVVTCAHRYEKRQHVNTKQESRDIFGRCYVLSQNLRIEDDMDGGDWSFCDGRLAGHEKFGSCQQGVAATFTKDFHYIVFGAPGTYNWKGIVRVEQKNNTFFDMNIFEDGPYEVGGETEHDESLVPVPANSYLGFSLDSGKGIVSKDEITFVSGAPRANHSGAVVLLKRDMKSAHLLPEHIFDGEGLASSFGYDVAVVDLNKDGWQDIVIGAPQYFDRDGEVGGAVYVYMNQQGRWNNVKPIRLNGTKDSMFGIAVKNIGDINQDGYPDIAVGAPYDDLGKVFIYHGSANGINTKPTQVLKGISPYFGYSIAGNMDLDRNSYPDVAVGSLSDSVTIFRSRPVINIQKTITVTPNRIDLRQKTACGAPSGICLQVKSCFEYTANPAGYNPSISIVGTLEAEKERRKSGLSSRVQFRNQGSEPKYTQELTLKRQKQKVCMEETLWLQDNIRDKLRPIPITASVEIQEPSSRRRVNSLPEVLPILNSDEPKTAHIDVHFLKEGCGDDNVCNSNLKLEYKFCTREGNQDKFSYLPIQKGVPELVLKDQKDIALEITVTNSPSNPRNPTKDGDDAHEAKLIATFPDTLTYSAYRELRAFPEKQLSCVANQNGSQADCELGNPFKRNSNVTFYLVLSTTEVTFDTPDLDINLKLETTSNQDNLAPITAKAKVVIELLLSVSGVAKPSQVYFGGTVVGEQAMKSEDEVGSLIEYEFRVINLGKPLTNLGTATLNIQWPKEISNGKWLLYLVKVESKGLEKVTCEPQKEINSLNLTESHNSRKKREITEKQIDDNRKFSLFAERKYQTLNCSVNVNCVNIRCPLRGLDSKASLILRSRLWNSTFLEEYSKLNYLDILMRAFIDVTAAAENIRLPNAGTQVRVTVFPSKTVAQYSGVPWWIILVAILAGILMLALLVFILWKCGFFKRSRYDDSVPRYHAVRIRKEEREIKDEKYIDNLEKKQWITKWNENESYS
Chain of α6β1 integrin on Expi293F cells, α6 R157A (P05556 21-798, chain 2 of 2): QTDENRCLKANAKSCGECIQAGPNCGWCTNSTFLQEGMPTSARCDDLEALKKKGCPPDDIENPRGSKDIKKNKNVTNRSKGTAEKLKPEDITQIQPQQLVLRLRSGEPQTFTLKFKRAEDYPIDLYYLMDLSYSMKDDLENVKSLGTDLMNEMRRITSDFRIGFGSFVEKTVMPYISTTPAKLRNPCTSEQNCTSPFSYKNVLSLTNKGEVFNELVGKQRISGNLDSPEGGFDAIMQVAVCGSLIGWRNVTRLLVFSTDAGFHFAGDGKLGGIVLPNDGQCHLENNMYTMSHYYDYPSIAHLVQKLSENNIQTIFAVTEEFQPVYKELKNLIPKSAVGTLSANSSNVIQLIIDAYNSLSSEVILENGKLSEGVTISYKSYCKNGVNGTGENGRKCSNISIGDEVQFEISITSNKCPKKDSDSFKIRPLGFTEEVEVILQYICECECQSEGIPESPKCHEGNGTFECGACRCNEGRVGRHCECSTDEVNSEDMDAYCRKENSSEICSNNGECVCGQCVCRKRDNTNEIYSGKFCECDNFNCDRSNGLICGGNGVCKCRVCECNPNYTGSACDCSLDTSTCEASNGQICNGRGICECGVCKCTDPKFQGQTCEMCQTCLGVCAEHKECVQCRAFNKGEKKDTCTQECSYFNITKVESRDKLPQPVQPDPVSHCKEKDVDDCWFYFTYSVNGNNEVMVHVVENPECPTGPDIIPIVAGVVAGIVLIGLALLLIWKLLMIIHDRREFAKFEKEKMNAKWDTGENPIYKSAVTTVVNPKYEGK

Chain of α6β1 integrin on Expi293F cells, α6 D153A (chain, as listed by the source D153A, chain 1 of 2): as the sequence (chain, as listed by the source R157A, chain 1 of 2) above, with D153A, A157R counted along it
Chain of α6β1 integrin on Expi293F cells, α6 D153A (P05556 21-798, chain 2 of 2): as the sequence (P05556 21-798, chain 2 of 2) above

fold increase in KD over the wild type [1]: 3.6 fold
fold increase in KD over the wild type [2]: 2.3 fold
B1: trimeric fusion protein PA-sfGFP-tLM511 (complex)
chain 1: ENVERWQGQYEGLRGQDLGQAVLDAGHSVSTLEKTLPQLLAKLSILENRGVHNASLALSASIGRVRELIAQARGAASKVKVPMKFNGRSGVQLRTPRDLADLAAYTALKFYLQGPEPEPGQGTEDRFVMYMGSRQATGDYMGVSLRDKKVHWVYQLGEAGPAVLSIDEDIGEQFAAVSLDRTLQFGHMSVTVERQMIQETKGDTVAPGAEGLLNLRPDDFVFYVGGYPSTFTPPPLLRFPGYRGCIEMDTLNEEVVSLYNFERTFQLDTAVDRPCARSKSTGDPWLTDGSYLDGTGFARISFDSQISTTKRFEQELRLVSYSGVLFFLKQQSQFLCLAVQEGSLVLLYDFGAGLKKAVPLQPPPPLTSASKAIQVFLLGGSRKRVLVRVERATVYSVEQDNDLELADAYYLGGVPPDQLPPSLRRLFPTGGSVRGCVKGIKALGKYVDLKRLNTTGVSAGCTADLLVGRAMTFHGHGFLRLALSNVAPLTGNVYSGFGFHSAQDSALLYYRASPDGLCQVSLQQGRVSLQLLRTEVKTQAGFADGAPHYVAFYSNATGVWLYVDDQLQQMKPHRGPPPELQPQPEGPPRLLLGGLPESGTIYNFSGCISNVFVQRLLGPQRVFDLQQNLGSVNVSTGCAPALQAQTPGLGPRGLQATARKASRRSRQPARHPA
chain 2: not shown
chain 3: DTVDLNKLNEIEGTLNKAKDEMKVSDLDRKVSDLENEAKKQEAAIMDYNRDIEEIMKDIRNLEDIRKTLPSGCFNTPSIEKP
notes: laminin α5 chain (tLMα5), human, residues E2655-A3327, numbered from the initiation Met; sfGFP inserted between the PA tag and tLMα5; laminin β1 chain (tLMβ1), human, residues D1714-L1786, numbered from the initiation Met; laminin γ1 chain (tLMγ1), human, residues D1528-P1609, numbered from the initiation Met; sfGFP gene: GenBank ASL68970.1; also called sfGFP-fused tLM511; fluorescent tLM511 …
